Experimental data reported in patent US20110020361A1 (GOVERNMENT OF THE UNITED STATES OF AMERICA AS REPRESENTED …, published 2011).

Target: T1, recombinant human mesothelin (amino acids 296-600 of SEQ ID NO: 4) (human, UniProt Q13421 296-600)
T1 construct: Secreted from SF9 insect cells (baculovirus vector pAcGP67) and purified by nickel column and gel filtration; It was coated on ELISA plates and, biotin-labelled, used for panning; also called recombinant mesothelin; purified mesothelin
Test: ELISA, recombinant mesothelin coated on plate, anti-FLAG-HRP detection
Experimental: Antigen (mesothelin) diluted in PBS was coated on narrow-well 96-well plates at 50 ng/well overnight at 4° C. Wells were blocked with 100 μl of 4% milk/PBS (MPBS) for 1 hour at 37° C. […] Fifty μl of diluted Fab was added to duplicate wells. For competition ELISA, designated concentrations of competing IgG were included in all Fab solutions. After 2 hours of incubation at 37° C., the wells were washed with PBST (PBS+0.05% Tween 20) 4 times. […] Wells were washed again with PBST. Substrate ABTS was added (50 μl/well), and the reaction was read at A405 nm. For ELISA with IgG, a goat anti-human Fc IgG conjugated with HRP was used at 1:1000.

B1: Fab m912 (Fab, V domains shown)
VH: QVQLQESGPGLVKPSETLSLTCTVSGGSVSSGSYYWSWIRQPPGKGLEWIGYIYYSGSTNYNPSLKSRVTISVDTSKNQFSLKLSSVTAADTAVYYCAREGKNGAFDIWGQGTMVTVSS
VL: not shown
notes: Human Fab from a naive Fab phage library, expressed in E. coli HB2151; also called clone m912; mesothelin-specific antibody m912
B1 was tested, and the EC50 was 20 nM.
